Experimental data from article PMC3340179.

Biological target: STAT3-GFP (STAT3-EGFP fusion, unphosphorylated) (UniProt P40763)
Assay: MST

Chain of STAT3-GFP (STAT3-EGFP fusion, unphosphorylated) (P40763 whole entry, the tested form may be a part): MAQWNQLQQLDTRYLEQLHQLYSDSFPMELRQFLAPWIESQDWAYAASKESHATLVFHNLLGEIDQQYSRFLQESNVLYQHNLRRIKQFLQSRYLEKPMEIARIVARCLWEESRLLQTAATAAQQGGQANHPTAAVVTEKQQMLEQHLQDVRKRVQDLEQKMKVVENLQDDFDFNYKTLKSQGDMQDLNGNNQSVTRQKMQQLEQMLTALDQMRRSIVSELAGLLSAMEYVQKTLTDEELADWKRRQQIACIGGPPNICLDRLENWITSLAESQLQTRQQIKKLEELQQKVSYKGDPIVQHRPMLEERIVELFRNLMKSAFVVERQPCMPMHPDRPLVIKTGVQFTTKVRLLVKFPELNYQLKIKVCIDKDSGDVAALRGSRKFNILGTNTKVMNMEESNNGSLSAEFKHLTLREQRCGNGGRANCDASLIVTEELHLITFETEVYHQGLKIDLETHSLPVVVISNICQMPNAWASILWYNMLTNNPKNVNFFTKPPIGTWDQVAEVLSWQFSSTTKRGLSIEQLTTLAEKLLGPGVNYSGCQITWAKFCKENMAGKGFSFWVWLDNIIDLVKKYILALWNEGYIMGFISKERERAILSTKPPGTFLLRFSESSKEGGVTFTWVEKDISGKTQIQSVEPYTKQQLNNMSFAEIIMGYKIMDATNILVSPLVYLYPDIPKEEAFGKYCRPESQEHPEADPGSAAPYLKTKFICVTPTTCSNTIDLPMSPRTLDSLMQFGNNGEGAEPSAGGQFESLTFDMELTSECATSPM

| Sequence | Kd [µM] |
| --- | --- |
| AAAACAAAACGAAACAAACAAACTA (double strand) [S+100] | 23.3 |
| GTTTCCGGGAAAGCAGTAGGTTTCCGGGAAAG (double strand) [GAS] | 37.9 |
